Results from patent publication US20220048967A1 (published 2022).
Numbered stars: 1 amine (or outer) side, 2 acyl side, 3 side chain; on linkers, the order of the positions; unused ones are H or OH. Square brackets hold non-standard residues; d marks the D form. Side chains are listed from the residue outwards. Ends that are not written are not given here. * marks the point of attachment. C20 diacid = O=C(O)CCCCCCCCCCCCCCCCCCC(=O)*; γGlu = O=C(O)[C@H](CCC(=O)[*:2])N[*:1]; AEEA = NCCOCCOCC(=O)O; Aib = CC(C)(N)C(=O)O

Experiments:
human GLP-1 receptor = human GLP-1 receptor (human, UniProt P43220 24-463); assay: cell-based or functional assay
human GIP receptor = biological target: T1, human GIP receptor (human, UniProt P48546 22-466); assay: cell-based or functional assay
T1 sequence (looked up): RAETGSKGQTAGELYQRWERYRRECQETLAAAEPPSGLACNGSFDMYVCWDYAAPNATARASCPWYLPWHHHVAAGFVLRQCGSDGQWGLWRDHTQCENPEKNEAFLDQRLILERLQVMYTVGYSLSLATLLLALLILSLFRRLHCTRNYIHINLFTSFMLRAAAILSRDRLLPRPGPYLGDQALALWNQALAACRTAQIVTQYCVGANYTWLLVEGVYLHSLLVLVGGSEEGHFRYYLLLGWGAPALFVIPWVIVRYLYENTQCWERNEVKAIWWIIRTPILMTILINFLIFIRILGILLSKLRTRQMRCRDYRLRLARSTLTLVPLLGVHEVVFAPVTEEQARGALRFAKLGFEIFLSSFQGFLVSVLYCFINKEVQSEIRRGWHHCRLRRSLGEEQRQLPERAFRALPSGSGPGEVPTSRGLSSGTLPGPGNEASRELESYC

B1: Example 72 (peptide)
peptide: Y[Aib]EGTFTSDYSILLDKIAQ[Aib]K([AEEA-AEEA-γGlu-C20 diacid])FIEYLIEGG-NH2
modifications: N-terminus assumed
SMILES: CC[C@H](C)[C@H](NC(=O)[C@H](CCCCN)NC(=O)[C@H](CC(=O)O)NC(=O)[C@H](CC(C)C)NC(=O)[C@H](CC(C)C)NC(=O)[C@@H](NC(=O)[C@H](CO)NC(=O)[C@H](Cc1ccc(O)cc1)NC(=O)[C@H](CC(=O)O)NC(=O)[C@H](CO)NC(=O)[C@@H](NC(=O)[C@H](Cc1ccccc1)NC(=O)[C@@H](NC(=O)CNC(=O)[C@H](CCC(=O)O)NC(=O)C(C)(C)NC(=O)[C@@H](N)Cc1ccc(O)cc1)[C@@H](C)O)[C@@H](C)O)[C@@H](C)CC)C(=O)N[C@@H](C)C(=O)N[C@@H](CCC(N)=O)C(=O)NC(C)(C)C(=O)N[C@@H](CCCCNC(=O)COCCOCCNC(=O)COCCOCCNC(=O)CC[C@H](NC(=O)CCCCCCCCCCCCCCCCCCC(=O)O)C(=O)O)C(=O)N[C@@H](Cc1ccccc1)C(=O)N[C@H](C(=O)N[C@@H](CCC(=O)O)C(=O)N[C@@H](Cc1ccc(O)cc1)C(=O)N[C@@H](CC(C)C)C(=O)N[C@H](C(=O)N[C@@H](CCC(=O)O)C(=O)NCC(=O)NCC(N)=O)[C@@H](C)CC)[C@@H](C)CC
Human GLP-1 receptor
  hGLP1R cAMP EC50 ratio: 0.0645
  hGLP1R cAMP Rel EC50: 0.906 nM
Human GIP receptor
  hGIPR cAMP EC50 ratio: 0.715
  hGIPR cAMP Rel EC50: 0.252 nM

B2: Example 74 (peptide)
peptide: YXEGTFTSDYSIXLDKKAQXAXIEYLIEGGPSSGAPPPS
modifications: not fully specified; Aib2; αMeF13 as printed (likely αMeL13); K17((2-[2-(2-Amino-ethoxy)-ethoxy]-acetyl)2-(γ-Glu)-CO-(CH2)18-CO2H); Aib20; αMeF22; C-terminal NH2
Human GLP-1 receptor
  hGLP1R cAMP EC50 ratio: 0.115
  hGLP1R cAMP Rel EC50: 0.467 nM
Human GIP receptor
  hGIPR cAMP EC50 ratio: 1.7
  hGIPR cAMP Rel EC50: 0.0866 nM

B3: Example 76 (peptide)
peptide: YXEGTXTSDYSIXLDKKAQXAXIEYLIEGGPSSGAPPPS
modifications: not fully specified; Aib2; αMeF6; αMeF13 as printed (likely αMeL13); K17((2-[2-(2-Amino-ethoxy)-ethoxy]-acetyl)2-(γ-Glu)-CO-(CH2)18-CO2H); Aib20; αMeF22; C-terminal NH2
Human GLP-1 receptor
  hGLP1R cAMP EC50 ratio: 0.63
  hGLP1R cAMP Rel EC50: 0.125 nM
Human GIP receptor
  hGIPR cAMP EC50 ratio: 1.24
  hGIPR cAMP Rel EC50: 0.124 nM

B4: Example 75 (peptide)
peptide: YXEGTFTSDYSIXLDKKAQXAFIEYXIEGGPSSGAPPPS
modifications: not fully specified; Aib2; αMeF13 as printed (likely αMeL13); K17((2-[2-(2-Amino-ethoxy)-ethoxy]-acetyl)2-(γ-Glu)-CO-(CH2)18-CO2H); Aib20; αMeF26 as printed (likely αMeL26); C-terminal NH2
Human GLP-1 receptor
  hGLP1R cAMP EC50 ratio: 0.0359
  hGLP1R cAMP Rel EC50: 1.49 nM
Human GIP receptor
  hGIPR cAMP EC50 ratio: 0.69
  hGIPR cAMP Rel EC50: 0.214 nM

B5: Example 73 (peptide)
peptide: Y[Aib]EGTFTSDYSILLDKIAQ[Aib]AFIEYLIK([AEEA-AEEA-γGlu-C20 diacid])GG-NH2
modifications: N-terminus assumed
SMILES: CC[C@H](C)[C@H](NC(=O)[C@H](CCCCN)NC(=O)[C@H](CC(=O)O)NC(=O)[C@H](CC(C)C)NC(=O)[C@H](CC(C)C)NC(=O)[C@@H](NC(=O)[C@H](CO)NC(=O)[C@H](Cc1ccc(O)cc1)NC(=O)[C@H](CC(=O)O)NC(=O)[C@H](CO)NC(=O)[C@@H](NC(=O)[C@H](Cc1ccccc1)NC(=O)[C@@H](NC(=O)CNC(=O)[C@H](CCC(=O)O)NC(=O)C(C)(C)NC(=O)[C@@H](N)Cc1ccc(O)cc1)[C@@H](C)O)[C@@H](C)O)[C@@H](C)CC)C(=O)N[C@@H](C)C(=O)N[C@@H](CCC(N)=O)C(=O)NC(C)(C)C(=O)N[C@@H](C)C(=O)N[C@@H](Cc1ccccc1)C(=O)N[C@H](C(=O)N[C@@H](CCC(=O)O)C(=O)N[C@@H](Cc1ccc(O)cc1)C(=O)N[C@@H](CC(C)C)C(=O)N[C@H](C(=O)N[C@@H](CCCCNC(=O)COCCOCCNC(=O)COCCOCCNC(=O)CC[C@H](NC(=O)CCCCCCCCCCCCCCCCCCC(=O)O)C(=O)O)C(=O)NCC(=O)NCC(N)=O)[C@@H](C)CC)[C@@H](C)CC
Human GLP-1 receptor
  hGLP1R cAMP EC50 ratio: 0.0225
  hGLP1R cAMP Rel EC50: 2.55 nM
Human GIP receptor
  hGIPR cAMP EC50 ratio: 0.174
  hGIPR cAMP Rel EC50: 0.979 nM

B6: Example 71 (peptide)
peptide: Y[Aib]EGTFTSDYSILK([AEEA-AEEA-γGlu-C20 diacid])DKIAQ[Aib]AFIEYLIEGG-NH2
modifications: N-terminus assumed
SMILES: CC[C@H](C)[C@H](NC(=O)[C@H](CCCCN)NC(=O)[C@H](CC(=O)O)NC(=O)[C@H](CCCCNC(=O)COCCOCCNC(=O)COCCOCCNC(=O)CC[C@H](NC(=O)CCCCCCCCCCCCCCCCCCC(=O)O)C(=O)O)NC(=O)[C@H](CC(C)C)NC(=O)[C@@H](NC(=O)[C@H](CO)NC(=O)[C@H](Cc1ccc(O)cc1)NC(=O)[C@H](CC(=O)O)NC(=O)[C@H](CO)NC(=O)[C@@H](NC(=O)[C@H](Cc1ccccc1)NC(=O)[C@@H](NC(=O)CNC(=O)[C@H](CCC(=O)O)NC(=O)C(C)(C)NC(=O)[C@@H](N)Cc1ccc(O)cc1)[C@@H](C)O)[C@@H](C)O)[C@@H](C)CC)C(=O)N[C@@H](C)C(=O)N[C@@H](CCC(N)=O)C(=O)NC(C)(C)C(=O)N[C@@H](C)C(=O)N[C@@H](Cc1ccccc1)C(=O)N[C@H](C(=O)N[C@@H](CCC(=O)O)C(=O)N[C@@H](Cc1ccc(O)cc1)C(=O)N[C@@H](CC(C)C)C(=O)N[C@H](C(=O)N[C@@H](CCC(=O)O)C(=O)NCC(=O)NCC(N)=O)[C@@H](C)CC)[C@@H](C)CC
Human GLP-1 receptor
  hGLP1R cAMP EC50 ratio: 0.0604
  hGLP1R cAMP Rel EC50: 1.02 nM
Human GIP receptor
  hGIPR cAMP EC50 ratio: 1.02
  hGIPR cAMP Rel EC50: 0.166 nM

B7: Example 70 (peptide)
peptide: Y[Aib]EGTFTSDK([AEEA-AEEA-γGlu-C20 diacid])SILLDKIAQ[Aib]AFIEYLIEGG-NH2
modifications: N-terminus assumed
SMILES: CC[C@H](C)[C@H](NC(=O)[C@H](CCCCN)NC(=O)[C@H](CC(=O)O)NC(=O)[C@H](CC(C)C)NC(=O)[C@H](CC(C)C)NC(=O)[C@@H](NC(=O)[C@H](CO)NC(=O)[C@H](CCCCNC(=O)COCCOCCNC(=O)COCCOCCNC(=O)CC[C@H](NC(=O)CCCCCCCCCCCCCCCCCCC(=O)O)C(=O)O)NC(=O)[C@H](CC(=O)O)NC(=O)[C@H](CO)NC(=O)[C@@H](NC(=O)[C@H](Cc1ccccc1)NC(=O)[C@@H](NC(=O)CNC(=O)[C@H](CCC(=O)O)NC(=O)C(C)(C)NC(=O)[C@@H](N)Cc1ccc(O)cc1)[C@@H](C)O)[C@@H](C)O)[C@@H](C)CC)C(=O)N[C@@H](C)C(=O)N[C@@H](CCC(N)=O)C(=O)NC(C)(C)C(=O)N[C@@H](C)C(=O)N[C@@H](Cc1ccccc1)C(=O)N[C@H](C(=O)N[C@@H](CCC(=O)O)C(=O)N[C@@H](Cc1ccc(O)cc1)C(=O)N[C@@H](CC(C)C)C(=O)N[C@H](C(=O)N[C@@H](CCC(=O)O)C(=O)NCC(=O)NCC(N)=O)[C@@H](C)CC)[C@@H](C)CC
Human GLP-1 receptor
  hGLP1R cAMP EC50 ratio: 0.207
  hGLP1R cAMP Rel EC50: 0.283 nM
Human GIP receptor
  hGIPR cAMP EC50 ratio: 0.351
  hGIPR cAMP Rel EC50: 0.48 nM
